Experimental findings from PMC6426777 are described below.

Experiment [1] addresses recombinant C1q Lys^A200Asp-Lys^A201Asp mutant (human) (UniProt P02745). The experiment is described as follows: SPR; Biacore 3000, 25°C; C1q variants immobilised on CM5 chips by amine coupling; partners injected at 20 μl/min in 50 mM Tris-HCl, 150 mM NaCl, 2 mM CaCl2, 0.005% surfactant P20, pH 7.4; BSA reference surface; global fit to 1:1 Langmuir model; apparent KD = kd/ka. For orientation: Surface plasmon resonance follows binding to a sensor surface in real time, without labels.

Experiment [2] concerns the target recombinant C1q Lys^C170Glu mutant (human) (UniProt P02745). The experiment is described as above.
The target of experiment [3] is recombinant wild-type C1q (human) (UniProt P02745). The description is as above.
recombinant wild-type C1q (human), sequence (P02745 23-245, chain 1 of 3): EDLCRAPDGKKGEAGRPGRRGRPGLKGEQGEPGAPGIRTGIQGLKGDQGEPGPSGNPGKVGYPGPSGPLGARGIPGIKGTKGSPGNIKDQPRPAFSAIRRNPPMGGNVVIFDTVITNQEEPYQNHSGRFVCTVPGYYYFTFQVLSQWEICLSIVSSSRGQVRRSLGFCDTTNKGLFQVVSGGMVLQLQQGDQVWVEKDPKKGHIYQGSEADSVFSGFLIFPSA
recombinant wild-type C1q (human), sequence (P02746 28-253, chain 2 of 3, further chain): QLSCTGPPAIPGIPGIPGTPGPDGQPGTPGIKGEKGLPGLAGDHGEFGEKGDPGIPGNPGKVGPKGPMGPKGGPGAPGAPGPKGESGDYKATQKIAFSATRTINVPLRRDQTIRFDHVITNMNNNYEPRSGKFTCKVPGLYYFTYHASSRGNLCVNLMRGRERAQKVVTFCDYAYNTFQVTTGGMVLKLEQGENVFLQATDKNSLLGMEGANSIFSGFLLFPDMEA
recombinant wild-type C1q (human), sequence (P02747 29-245, chain 3 of 3, further chain): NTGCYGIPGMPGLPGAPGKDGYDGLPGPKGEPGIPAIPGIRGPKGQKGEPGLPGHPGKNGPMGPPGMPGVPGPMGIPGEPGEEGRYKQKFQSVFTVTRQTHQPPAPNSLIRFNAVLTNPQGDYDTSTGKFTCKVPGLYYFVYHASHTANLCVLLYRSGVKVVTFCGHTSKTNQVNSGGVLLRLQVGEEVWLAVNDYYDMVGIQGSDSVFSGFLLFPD
The target in experiment [4] is recombinant human PTX3 D48 allelic variant from HEK293 (human) (UniProt P26022). The experiment in a line: non-reducing SDS-PAGE; purified PTX3 on Tris acetate 3-8% gels without dithiothreitol, silver stain; disulfide-linked oligomers.
Experiment [5] deals with recombinant human PTX3 (D at position 48) from CHO cells (human) (UniProt P26022).
The target in experiment [6] is recombinant C1q Tyr^B175Leu mutant (human) (UniProt P02745). The experiment in a line: SPR; Biacore 3000, 25°C; C1q variants immobilised on CM5 chips by amine coupling; partners injected at 20 μl/min in 50 mM Tris-HCl, 150 mM NaCl, 2 mM CaCl2, 0.005% surfactant P20, pH 7.4; BSA reference surface; global fit to 1:1 Langmuir model; apparent KD = kd/ka.
recombinant C1q Tyr^B175Leu mutant (human), sequence (P02745 23-245, stated change not applied, chain 1 of 3): as the sequence (P02745 23-245, chain 1 of 3) above
recombinant C1q Tyr^B175Leu mutant (human), sequence (P02746 other isoform, or with tags, fused parts or gaps mutant, chain 2 of 3, further chain): as the sequence (P02746 28-253, chain 2 of 3, further chain) above, with Y175L counted along it
recombinant C1q Tyr^B175Leu mutant (human), sequence (P02747 29-245, stated change not applied, chain 3 of 3, further chain): as the sequence (P02747 29-245, chain 3 of 3, further chain) above
Experiment [7] has as its target recombinant human PTX3 A48 allelic variant from HEK293 (human) (UniProt P26022). The experiment is described as follows: non-reducing SDS-PAGE; purified PTX3 on Tris acetate 3-8% gels without dithiothreitol, silver stain; disulfide-linked oligomers.

recombinant C1q Lys^C170Glu mutant (human), sequence (P02745 23-245, change not shown, chain 1 of 3): as the sequence (P02745 23-245, chain 1 of 3) above
recombinant C1q Lys^C170Glu mutant (human), sequence (P02746 28-253, change not shown, chain 2 of 3, further chain): as the sequence (P02746 28-253, chain 2 of 3, further chain) above
recombinant C1q Lys^C170Glu mutant (human), sequence (P02747 other isoform, or with tags, fused parts or gaps mutant, chain 3 of 3, further chain): as the sequence (P02747 29-245, chain 3 of 3, further chain) above, with K170E counted along it
recombinant C1q Lys^A200Asp-Lys^A201Asp mutant (human), sequence (P02745 other isoform, or with tags, fused parts or gaps mutant, chain 1 of 3): as the sequence (P02745 23-245, chain 1 of 3) above, with K200D, K201D counted along it
recombinant C1q Lys^A200Asp-Lys^A201Asp mutant (human), sequence (P02746 28-253, stated change not applied, chain 2 of 3, further chain): as the sequence (P02746 28-253, chain 2 of 3, further chain) above
recombinant C1q Lys^A200Asp-Lys^A201Asp mutant (human), sequence (P02747 29-245, stated change not applied, chain 3 of 3, further chain): as the sequence (P02747 29-245, chain 3 of 3, further chain) above

Take “recombinant human PTX3 (D at position 48) from CHO cells (from UniProt P26022 18-381) (natural protein)”: in experiment [1], the Kd worked out at 7.84 nM, the koff was found to be 0.000634 s⁻¹ and the kon amounted to 98300 M⁻¹ s⁻¹. Further, in experiment [2], the Kd is 10.9 nM, the off-rate constant (koff) turned out to be 0.00152 s⁻¹ and the kon was 140000 M⁻¹ s⁻¹. In addition, in experiment [3], the Kd is 5.65 nM, the koff turned out to be 0.000859 s⁻¹ and the kon was 155000 M⁻¹ s⁻¹.

“recombinant human PTX3 D48 allelic variant from HEK293 (from UniProt P26022 18-381) (natural protein)”: the stoichiometry N in experiment [4] was found to be 8.

For the substance “recombinant C1q Lys^A200Asp-Lys^A201Asp mutant (from UniProt P02745 23-245; P02746 28-253; P02747 29-245) (complex)”, the PTX3-dependent complement activation: C4b deposition in PTX3-coated wells, C1q-depleted serum reconstituted with the C1q variant (4 μg/ml) in experiment [5] was 163 % of C1qWT.

Consider “recombinant C1s-C1r-C1r-C1s tetramer (complex)”, for which the Kd in experiment [2] stood at 5.29 nM; in experiment [6], 6.75 nM; in experiment [3] it was 6.36 nM. For the same substance, the koff in experiment [2] amounted to 0.00256 s⁻¹; in experiment [6], 0.00297 s⁻¹; in experiment [3], 0.00288 s⁻¹. In addition, the results for the kon in experiment [2], in experiment [6] and in experiment [3] were 486000 M⁻¹ s⁻¹, 440000 M⁻¹ s⁻¹ and 435000 M⁻¹ s⁻¹, respectively.

For “recombinant C1q Arg^B108Asp-Arg^B109Glu mutant (from UniProt P02745 23-245; P02746 28-253; P02747 29-245) (complex)”, the IgM-dependent complement activation: C4b deposition in IgM-coated wells, C1q-depleted serum reconstituted with the C1q variant (4 μg/ml) (% of the signal obtained with C1qWT) in the experiment with human IgM (human) amounted to 9. Also, the PTX3-dependent complement activation: C4b deposition in PTX3-coated wells, C1q-depleted serum reconstituted with the C1q variant (4 μg/ml) (% of the signal obtained with C1qWT) in experiment [5] amounted to 30.

“recombinant C1q Tyr^B175Leu mutant (from UniProt P02745 23-245; P02746 28-253; P02747 29-245) (complex)” gave an IgM-dependent complement activation: C4b deposition in IgM-coated wells, C1q-depleted serum reconstituted with the C1q variant (4 μg/ml) (% of the C1qWT value) with human IgM (human) of 61.4. Moreover, the PTX3-dependent complement activation: C4b deposition in PTX3-coated wells, C1q-depleted serum reconstituted with the C1q variant (4 μg/ml) (% of the C1qWT value) in experiment [5] is 44.5.

Take human IgM (antibody): the Kd in experiment [1] came to 3.31 nM; in experiment [2], 2.48 nM; in experiment [6], 0.892 nM; in experiment [3] it was 1.92 nM. Further, the koff in experiment [1] came out at 0.00206 s⁻¹; in experiment [2], 0.00167 s⁻¹; in experiment [6] it was 0.00131 s⁻¹; in experiment [3], 0.00154 s⁻¹. The kon was 717000 M⁻¹ s⁻¹ in experiment [1], 681000 M⁻¹ s⁻¹ in experiment [2], 1.47e+06 M⁻¹ s⁻¹ in experiment [6] and 919000 M⁻¹ s⁻¹ in experiment [3].

As to “recombinant human PTX3 A48 allelic variant from HEK293 (from UniProt P26022 18-381) (natural protein)”, the stoichiometry N in experiment [7] turned out to be 8.

One may read the koff as the first-order rate constant of dissociation. For orientation: kon means a measure of how fast the partners come together. In general, stoichiometry N refers to the number of molecules, sites or subunits per partner or assembly.
